Laboratory results published in article PMC5557964.

Biological target: citrullinated fibronectin N-terminal 30 kDa fragment (treated with PAD2 or PAD4)
Experiment: ELISA; FN N-terminal 30 kDa fragment coated o/n on 96-well DNA-BIND plates (3 µg/cm^3, +4 °C), blocked with BSA, citrullinated on the plate by PAD2 or PAD4 (2.4 U/ml, o/n, +37 °C) or left as control; integrin αVβ3 5 µg/ml for 1 h at room temperature in Delfia assay buffer; detected with anti-αV antibody L230 and Eu-labelled anti-mouse antibody, time-resolved fluorescence; BSA wells as background

reduction of binding against the control FN fragment: > 50%
Substance: recombinant integrin αVβ3 ectodomain (from UniProt P06756 31-992; P05106 27-718) (receptor)
